A value given as a limit tells only on which side of the number the result lay.

Data on five molecules can be found in patent publication US7795386B2, “Peptides comprising an isoDGR motif” (Molmed SpA, priority 2004, dated 2010).

Data set [1] concerns the target T1, αvβ3 integrin (Homo sapiens, UniProt P05106+P06756).
T1 construct: purchased Immunological Sciences
Kind of data set: competitive binding of biotinylated NGR-TNF to αvβ3 coated plates. Particulars: FN-I5 incubated at 37° C. in DMEM. The method, then: Biotinylated NGR-TNF (4 μg/ml) was mixed with different amount of the indicated peptides and added to αvβ3 coated plates. Binding was detected as described in Materials and Methods. IC50 was determined by nonlinear regression analysis using the GraphPad Prism software. The kinetics of deamidation of FN-I5 was determined by plotting the inhibitory concentration (IC50) versus the incubation times. Bars represent the confidence intervals for each determined IC50.
Human αvβ3, αvβ5, α5β1 and α1β1 integrins solutions, 0.5-2 μg/ml in phosphate buffered saline with Ca^2+ and Mg^2+ (DPBS, Cambrex), were added to 96-well polyvinylchloride microtiter plates (50 μl/well) and left to incubate overnight at 4° C. All subsequent steps were carried out at room temperature. […] Bound peroxidase was detected by adding o-phenylendiammine chromogenic substrate.
(§1) Binding of biotinylated peptides (CNGRC (SEQ ID NO: 6)-TNF1-11, CARAC (SEQ ID NO: 36)-TNF1-11 and FN-I5) to purified integrins was studied using streptavidin-peroxidase conjugate complexes. Complexes were prepared by mixing various quantities (0.5-1 μg) of heat-treated biotinylated peptides in DPBS containing 3% BSA with 0.03 units of streptavidinperoxidase (binding capacity: 1 μg of biotin/unit of streptavidin-peroxidase) (final volume 15 μl). […] After washing with DPBS, bound peroxidase was detected by chromogenic reaction as described above. […]

For data set [2] the following is noted: bolus, humans (Fraker et al., 1995); cited from earlier work.
The target of data set [3] is T1, αvβ3 integrin. Kind of data set: direct ELISA binding to purified integrin adsorbed on microtiterplates. The method, then:
(A) Binding of heat-treated CNGRC-TNF and TNF to solid phases coated with purified human integrins. Single concentration (5 μg/ml) or various concentrations (inset) of CNGRC-TNF and TNF were used. Binding was detected with anti-TNF antibodies as described in Materials and Methods.
(B) Binding of biotinylated CNGRC-TNF1-11, CARAC-TNF1-11 and FN-I5 (complexed with streptavidin-peroxidase) to purified human integrins. Binding was detected by chromogenic reaction with o-phenylendiammine.
Human αvβ3, αvβ5, α5β1 and α1β1 integrins solutions, 0.5-2 μg/ml in phosphate buffered saline with Ca^2+ and Mg^2+ (DPBS, Cambrex), were added to 96-well polyvinylchloride microtiter plates (50 μl/well) and left to incubate overnight at 4° C. […] Bound peroxidase was detected by adding o-phenylendiammine chromogenic substrate.
as §1
On the technique in general: ELISA stands for enzyme-linked immunosorbent assay.

The test system of data set [4] is EA.hy926 cells. Kind of data set: EA.hy926 cell adhesion assay on coated microtiter plates. Type of data set: cell-based, human. As to conditions: for EA.hy926 cell adhesion to coated product after heat-treatment: 0.1 M ammonium bicarbonate buffer, pH 8.5, 16 h at 37° C. As to the method:
Adhesion of EA.hy926 cells to microtiter plates coated with various peptides and proteins before and after accelerated aging. Accelerated aging was performed by peptide incubation in 0.1 M ammonium bicarbonate buffer, pH 8.5, for 16 h at 37° C. (“heat-treatment”). Adhesion to: recombinant FN-I4-5 or control protein (FN-I4-5 (SGS)) (A), synthetic FN-I5 (B), recombinant CNGRC-TNF, CNGRC-TNF1-11 and control CARAC-TNF1-11 peptide (C), CDGRC-TNF (D). Heat-treated (37° C.) and untreated (−20° C.) products were adsorbed onto the plastic surface of microtiter wells (overnight at 4° C.). Microphotograph of wells coated with 30 μg/ml of heat-treated FN-I5 or BSA (B, right) or with 10 μg/ml of recombinant CNGRC-TNF or CDGRC-TNF (C, right), ×200. Cell adhesion assay was carried out as described in Materials and Methods. The TNF fusion constructs, including the TNF1-11 fusion constructs, were made as described Materials and Methods, and include a “G” linker.
(§2) Untreated and “heat treated” fibronectin fragments, peptides and peptide-TNF conjugates were diluted at the desired concentration with 150 mM sodium chloride, 50 mM sodium phosphate, pH 7.3, and added to 96-well polyvinyl chloride microtiter plates (Falcon, Becton Dickinson). After overnight incubation at 4° C., the plates were washed, seeded with EA.hy926 cell in DMEM containing 0.1% BSA (40000 cells/well) and left to incubate for 2-3 h at 37° C., 5% CO2. Adherent cells were fixed and stained with crystal violet as described (Curnis et al., 2005).

Data set [5] in a line: isoaspartate (isoAsp) quantification, ISOQUANT enzymatic assay. Particulars: for isoAsp (%): pmol of isoAsp/pmol of peptide (%). The source says: IsoAsp content in untreated and “heat treated” CNGRC (SEQ ID NO: 6)—TNF and peptides was quantified by using the ISOQUANT™ Isoaspartate Detection Kit (Promega).
The subject of data set [6] is L-M mouse fibroblasts. Kind of data set: standard cytolytic assay with L-M mouse fibroblasts. It counts as cell-based. As to conditions: for Cytolytic Activity: in vitro, L-M murine fibroblasts. The source says: Protein purity and identity were checked by SDS-PAGE, electrospray mass spectrometry and gel-filtration chromatography.
The cDNA coding for DGR-TNF (mouse TNF fused with the C-terminus of CDGRCG (SEQ ID NO: 24)) was obtained by PCR on NGR-TNF plasmid, using the following primers: 5′ […] 3′ (SEQ ID NO: 43) (5′ primer); 5′ […] ′3 (SEQ ID NO: 44) (3′ primer). Both primers were designed to allow the directional cloning into a pET101/D-TOPO plasmid expression kit (Invitrogen). The underlined sequence in 5′ primer contains the sequence necessary to enable the directional cloning and the initial translation codon whereas the 3′ primer contains the stop codon (underlined). The PCR reaction and the cloning procedure were performed as recommended by the manufacturer's instruction. […] The column was washed extensively 100 mM Tris-HCl buffer containing pH 8.0, loaded with DGR-TNF crude extract, diluted in 20 mM Tris-HCl buffer conatining 2 mM EDTA pH 8.0, and desorbed by elution with 7 M urea, 100 mM Tris-HCl, pH 8.0. DGR-TNF was then refolded as described (1). Briefly, the denatured products were dialyzed against 2.33 M urea, 100 mM Tris-HCl, pH 8.0 at 4° C. (140 min), followed by 1.55 M urea, 100 mM Tris-HCl, pH 8.0 (140 min), and 1 M urea, 100 mM Tris-HCl, pH 8 (140 min). Finally the products were dialyzed against 100 mM Tris-HCl, pH 8.0 (48 h). The products were centrifuged at 13000×g (10 min, 4° C.) and concentrated by ultra-filtration through a 10 KDa cut-off filter. All solutions used in the purification and refolding steps were prepared with sterile and endotoxin-free water (S.A.L.F. Laboratorio Farmacologico SpA, Bergamo, Italy). Protein concentration was measured using the BCA Protein Assay Reagent (Pierce, Rockford, Ill.). Protein purity and identity were checked by SDS-PAGE, electrospray mass spectrometry (ESI-MS) and analytical gel-filtration chromatography.

Data set [7] has as its system EA.hy926 cell adhesion to vitronectin. The experiment in a line: inhibition of EA.hy926 cell adhesion to vitronectin. It counts as cell-based, human. As to conditions: vitronectin 3 μg/ml coated. The method, then: (A) Inhibition of EA.hy926 cell adhesion to vitronectin by heat-treated FN-I5. Vitronectin (3 μg/ml) was adsorbed to microtiter plate and cell adhesion assay was performed as described in Materials and Methods.
as §2

Data set [8] concerns RMA lymphoma. Kind of data set: RMA lymphoma tumor growth in mice, heat-treated FN-I5. It counts as in vivo, mouse. Particulars: 200 μg i.p. daily from day 4; p=0.0003 at day 14. As to the method: (B) Anti-tumor effects of repeated administration of “heat-treated” FN-I5 to RMA-tumor bearing mice. Animals (5/group) were treated with 200 μg of “heat-treated” FN-I5 (i.p.) at the indicated times (arrows) starting 4 days after tumor implantation. * p=0.0003 at day 14, statistical analysis by two tailed t-test.
Studies on animal models were approved by the Ethical Committee of the San Raffaele H Scientific Institute and performed according to the prescribed guidelines. C57BL/6N mice (Charles River Laboratories, Calco, Italy) weighing 16-18 g were challenged with subcutaneous injection in the left flank of 7×10^4 RMA living cells; 4 days later, the mice were treated daily with 200 μg of heat-treated FN-I5 (100 μl) in 0.9% sodium chloride (i.p.). Tumor growth was monitored by measuring the tumors with calipers as previously described (Gasparri et al., 1999). Animals were sacrificed before the tumors reached 1.0-1.3 cm in diameter. Tumor sizes are shown as mean±SE (5 animals/group).

Data set [9] has as its system EA.hy926 cells. The experiment in a line: PIMT treatment of coated products followed by EA.hy926 cell adhesion assay. Type of data set: cell-based, human. Particulars: PIMT 16 h at 37° C. As to the method: Microtiterplates were coated with heat-treated FN-I5 or NGR-TNF (A), or with natural FN-30 KDa, FN-45 KDa or retronectin (RN) (CNGRC disclosed as SEQ ID NO: 6) (B). The adsorbed proteins were then treated with PIMT enzyme for 16 h at 37° C. After incubation the enzyme solution was removed by washing. EA.hy926 cell adhesion assay was then performed as described in Materials and Methods.
The effect of protei nL-isoAsp/D-As pO-methyltransferase (PIMT) on the pro-adhesive properties of different fragments was investigated as follows: microtiter plates were coated with various products as described above and washed with 0.9% sodium chloride. Each well was then filled with 45 μl of a solution containing 0.02 mM S-adenosyl-L-methionine in 150 mM sodium chloride, 50 mM sodium phosphate buffer, pH 6.8, and 5 μl of PIMT solution (from the Isoquant Isoaspartate Detection kit, Promega) (final volume 50 μl/well) and incubated at 37° C. for 16 h. After incubation the plates were washed with 0.9% sodium chloride and cell adhesion assay was performed as described above.

T1 sequence (P06756 31-889 limits assumed): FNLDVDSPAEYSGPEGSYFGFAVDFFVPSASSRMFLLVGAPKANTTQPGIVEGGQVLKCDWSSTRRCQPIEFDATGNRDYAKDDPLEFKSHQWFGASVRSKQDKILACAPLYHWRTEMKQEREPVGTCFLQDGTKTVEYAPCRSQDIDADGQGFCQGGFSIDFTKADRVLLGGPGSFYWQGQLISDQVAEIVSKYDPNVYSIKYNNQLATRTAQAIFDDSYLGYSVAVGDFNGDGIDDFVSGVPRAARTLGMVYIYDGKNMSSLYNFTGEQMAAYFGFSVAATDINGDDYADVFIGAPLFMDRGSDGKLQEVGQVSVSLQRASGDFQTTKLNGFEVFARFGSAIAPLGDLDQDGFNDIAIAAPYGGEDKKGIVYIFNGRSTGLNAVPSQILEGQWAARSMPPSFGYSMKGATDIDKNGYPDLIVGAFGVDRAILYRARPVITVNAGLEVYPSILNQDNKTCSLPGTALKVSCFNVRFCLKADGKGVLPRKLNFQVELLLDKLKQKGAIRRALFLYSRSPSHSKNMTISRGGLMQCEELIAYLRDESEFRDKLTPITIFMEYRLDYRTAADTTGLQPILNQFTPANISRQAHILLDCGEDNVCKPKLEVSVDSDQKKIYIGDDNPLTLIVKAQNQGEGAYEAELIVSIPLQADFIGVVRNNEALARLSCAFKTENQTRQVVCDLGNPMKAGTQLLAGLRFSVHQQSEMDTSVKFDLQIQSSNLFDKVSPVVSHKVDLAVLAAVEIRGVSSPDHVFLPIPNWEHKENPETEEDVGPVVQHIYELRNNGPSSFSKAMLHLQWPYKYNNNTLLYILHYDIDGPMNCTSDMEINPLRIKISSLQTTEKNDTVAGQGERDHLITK
T1 sequence (P06756 891-1048 partner limits assumed): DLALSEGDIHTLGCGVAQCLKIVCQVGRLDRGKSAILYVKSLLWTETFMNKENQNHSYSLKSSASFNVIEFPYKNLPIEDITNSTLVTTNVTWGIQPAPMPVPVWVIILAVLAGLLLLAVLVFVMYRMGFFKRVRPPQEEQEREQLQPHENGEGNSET
T1 sequence (P05106 27-788): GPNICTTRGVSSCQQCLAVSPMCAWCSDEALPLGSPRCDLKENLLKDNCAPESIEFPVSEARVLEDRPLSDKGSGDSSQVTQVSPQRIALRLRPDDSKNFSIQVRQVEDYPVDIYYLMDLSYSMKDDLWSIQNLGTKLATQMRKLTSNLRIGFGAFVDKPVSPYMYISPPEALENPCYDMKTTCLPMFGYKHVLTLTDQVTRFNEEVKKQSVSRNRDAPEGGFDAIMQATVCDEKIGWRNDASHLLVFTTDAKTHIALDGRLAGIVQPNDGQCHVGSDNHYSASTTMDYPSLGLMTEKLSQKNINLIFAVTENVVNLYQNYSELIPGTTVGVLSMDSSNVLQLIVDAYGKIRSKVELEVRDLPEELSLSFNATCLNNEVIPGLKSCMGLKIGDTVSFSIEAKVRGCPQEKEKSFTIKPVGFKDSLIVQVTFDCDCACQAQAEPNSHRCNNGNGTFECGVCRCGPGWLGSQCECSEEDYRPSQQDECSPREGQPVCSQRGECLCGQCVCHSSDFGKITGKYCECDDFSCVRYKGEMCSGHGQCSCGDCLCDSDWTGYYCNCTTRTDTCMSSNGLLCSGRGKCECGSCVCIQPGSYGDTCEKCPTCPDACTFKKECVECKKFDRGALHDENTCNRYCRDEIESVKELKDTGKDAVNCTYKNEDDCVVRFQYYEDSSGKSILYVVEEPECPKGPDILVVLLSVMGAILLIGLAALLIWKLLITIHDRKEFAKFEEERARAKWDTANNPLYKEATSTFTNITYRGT

For the molecule “FN-I5: synthetic peptide, 5th type I repeat of human fibronectin, residues 230-274, additional N-terminal acetyl-glycine, Glu250 in place of Asp250”, the “incubation time to maximal competitive binding activity” value in [1] fell in the range of 24 to 48 h.

Consider “TNF: murine TNF by recombinant DNA technology; in b159 bolus TNF in humans (literature) [reference compound]”, for which the maximum tolerated dose in data set [2] is 218-410 μg/m^2. For the same molecule, the “binding to αvβ3” value in [3] (heat-treated products, in words) is given as “No binding”. Further, the “EA.hy926 cell adhesion to coated product after heat-treatment” value in data set [4] was “No adhesion”. Further, the “EA.hy926 cell adhesion to coated product” value in data set [4] (before heat treatment) is recorded as “No adhesion”. For the same molecule, the “isoAsp (%)” value in data set [5] came to 2.6%. In data set [6], the “Cytolytic Activity” value was 8 × 10^8 U/mg.

In the case of “heat-treated FN-I5: FN-I5 incubated in 0.1 M ammonium bicarbonate buffer, pH 8.5, 16 h at 37° C. (deamidated)”, the “inhibition of adhesion of EA.hy926 cells to vitronectin” value in data set [7] is recorded as “could inhibit”. Further, the “tumor growth in RMA lymphoma bearing mice” value in data set [8] is listed as “significantly inhibited tumor growth”. In addition, the “effect of PIMT on pro-adhesive activity” value in data set [9] was “almost completely inhibited”.

B1: Cys-Asn-Gly-Arg-Cys-Gly-(SEQ ID NO: 7)TNF (protein)
chain: CNGRCGLRSSSQNSSDKPVAHVVANHQVEEQLEWLSQRANALLANGMDLKDNQLVVPADGLYLVYSQVLFKGQGCPDYVLLTHTVSRFAISYQEKVNLLSAVKSPCPKDTPEGAELKPWYEPIYLGGVFQLEKGDQLSAEVNLPKYLDFAESGQVYFGVIAL
notes: murine TNF fused with the C-terminus of CNGRCG, recombinant
As for B1, the “binding to αvβ3 before heat treatment” value in [3] (untreated, data not shown) is reported as “to a lower extent”. Further, the “EA.hy926 cell adhesion to coated product after heat-treatment” value in data set [4] is listed as “increased cell adhesion”. In [5] (0.1 M ammonium bicarbonate pH 8.5, 16 h, 37° C.), the isoAsp content after heat treatment was > 0.5 mol isoAsp/mol CNGRC-TNF subunit. In addition, the “isoAsp (%)” value in data set [5] is given as 29.8%. The “cytolytic activity after heat treatment” value in [6] (0.1 M ammonium bicarbonate buffer, pH 8.5, 37° C., 4 h of treatment) is on record as “no loss of cytolytic activity”. Further, the results for the “Cytolytic Activity” value in data set [6] and in [6] (listed as NGR-TNF) were 2.96 (±0.56)×10^8 U/mg and 2.9 × 10^8 U/mg, respectively.

B2: heat-treated CNGRC-TNF: CNGRC-TNF incubated in 0.1 M ammonium bicarbonate buffer, pH 8.5, 16 h at 37° C. (protein)
chain: CNGRCGLRSSSQNSSDKPVAHVVANHQVEEQLEWLSQRANALLANGMDLKDNQLVVPADGLYLVYSQVLFKGQGCPDYVLLTHTVSRFAISYQEKVNLLSAVKSPCPKDTPEGAELKPWYEPIYLGGVFQLEKGDQLSAEVNLPKYLDFAESGQVYFGVIAL
B2: in [9], the “effect of PIMT on pro-adhesive activity” value is recorded as “almost completely inhibited”.
